Data from patent publication US20160032297, “METHODS FOR THE IDENTIFICATION OF VARIANT RECOGNITION SITES FOR RARE-CUTTING ENGINEERED DOUBLE-STRAND-BREAK-INDUCING AGENTS AND COMPOSITIONS AND USES THEREOF” (E.I. DU PONT DE NEMOURS AND COMPANY, published 2016).

Target: T1, MHP14+ meganuclease (single-chain engineered I-CreI) (artificial)
T1 chain: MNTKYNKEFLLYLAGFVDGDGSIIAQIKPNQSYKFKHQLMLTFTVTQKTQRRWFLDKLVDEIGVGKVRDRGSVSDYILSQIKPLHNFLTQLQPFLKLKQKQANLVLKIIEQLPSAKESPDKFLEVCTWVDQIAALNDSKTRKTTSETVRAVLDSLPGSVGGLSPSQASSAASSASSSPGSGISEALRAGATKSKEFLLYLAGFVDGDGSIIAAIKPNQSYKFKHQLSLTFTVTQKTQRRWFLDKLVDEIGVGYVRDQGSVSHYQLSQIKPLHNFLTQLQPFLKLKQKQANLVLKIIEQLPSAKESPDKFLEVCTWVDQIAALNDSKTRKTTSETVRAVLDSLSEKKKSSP
Assay: cleavage_in_vitro; depends on reaction temperature
Conditions: tags: expressed from pQE80 in E. coli, Ni-NTA purified
Method: To generate material for the capture of genomic variant recognition sites, in vitro assays were carried out with 114 nM of purified meganuclease protein isolated as described in Example 2 and 6.07 μg of purified maize genomic DNA at 32° C. for 80 minutes in a final volume of 80 μl in the presence of digestion buffer (50 mM Tris-HCl (pH 7.9), 100 mM NaCl, 10 mM MgCl₂, 1 mM DTT, […]). After 80 minutes, the entire reaction was stopped with an equal volume of stop buffer (100 mM Tris-HCl (pH 8.0), 600 mM NaCl, 2% SDS, 100 mM EDTA, 1 mg of proteinase K per ml) and incubated at 50° C. for 30-45 minutes. Stopped reactions were purified by phenol/chloroform extraction and ethanol precipitated in the presence of 0.2 M NaCl. Precipitated genomic DNA was washed twice with 70% ethanol, dried, and resuspended in 34 μl of water. […]

B1: MHP14+ maize genomic variant site (dsDNA)
DNA 1: CAAGAAGAAGCACGTCAGCTTA
DNA 2: TAAGCTGACGTGCTTCTTCTTG
relative cleavage activity: ~3 fold vs intended site
